In the supplement of paper PMC12042874 one finds amyloid nucleation score data, which are given here for 141 substances.

± gives the uncertainty stated by the source.

The data set in a line: amyloid nucleation score (Sup35N fusion, yeast selection) (log enrichment); library NNK1; higher = more nucleation; inactive = no reads after selection. The essentials: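 Yeast lacking psi expressed peptides of 20 random codons fused to Sup35N, received 100 μM copper sulfate for 24 hours, and were then grown for 7 days at 30°C on medium lacking adenine and uracil. Illumina sequencing of input and output plasmid inserts provided the reads. Nucleation scores are DiMSum log enrichments of output over input, centred on the mode of non-aggregating sequences. Any sequence with under 100 input reads was excluded.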
Consider NASYVNIKYRNRGN, for which the amyloid nucleation score came to 4.53 ± 0.082.

As to FETDNIDPHGYSFEYDASPA, the amyloid nucleation score is -0.25 ± 0.43.

For FCILFSLIVTVGSLLRFLYR, the amyloid nucleation score is 2.01 ± 0.1.

The substance GRLFWVNVTLNLRDMNYSDM yielded an amyloid nucleation score of 1.09 ± 0.5.

Substance SRIIGMSRCCIGHRYMYMKT displayed an amyloid nucleation score of -0.598 ± 1.4.

Regarding MSRFLTLMHFERNFV, the amyloid nucleation score worked out at 0.566 ± 0.42.

YYIVVCR had an amyloid nucleation score of 0.932 ± 0.97.

In turn, LLFIAG showed an amyloid nucleation score of 0.386 ± 0.66.

The substance PFNQLDFTVAYYLSCAH registered an amyloid nucleation score of -0.482 ± 0.63.

Consider ILYFLPNFHIMLSLI, for which the amyloid nucleation score result was “inactive”.

Regarding SLMWLWIFSRAGSLSLLLIA, the amyloid nucleation score was 0.718 ± 1.2.

Turning to GIYGQWTQ, the amyloid nucleation score was 0.697 ± 0.85.

The substance MLFNTHHVYLSTM had an amyloid nucleation score of 0.987 ± 0.53.

In the case of ERAPASSMGSWYGIGKGNAV, the amyloid nucleation score was -0.061 ± 1.1.

In turn, NDRLLMVRYILHFESNAMTW gave an amyloid nucleation score of 0.794 ± 0.38.

In turn, VLYAP displayed an amyloid nucleation score of -0.33 ± 1.7.

In turn, VIGDLSYRSYI displayed an amyloid nucleation score of 0.44 ± 0.4.

For EKGKLCKG, the amyloid nucleation score was -0.101 ± 0.84.

The substance SCMESSVTL gave an amyloid nucleation score of 0.656 ± 0.35.

Substance LVRDHRYFEFLASV gave an amyloid nucleation score of 0.381 ± 0.39.

Substance RLRQTGVRLRSQEMFVGEVY came in with an amyloid nucleation score of -0.378 ± 0.45.

For GLRYFKLLLSEGSR, the amyloid nucleation score is -0.209 ± 1.

In turn, QMYVVMLVGVLFCWGTPYRL showed an amyloid nucleation score of 0.301 ± 0.39.

ILERSHRVGYCAHLLCISVN showed an amyloid nucleation score of 0.171 ± 0.63.

In the case of TFLWC, the amyloid nucleation score is 0.462 ± 0.4.

As to KSLVVACDVYSNALLRVMFR, the amyloid nucleation score is -0.291 ± 0.26.

HLLNMNSDLRTHCYVVWT came in with an amyloid nucleation score of -0.264 ± 0.25.

Consider LKGRYDIKNY, for which the amyloid nucleation score entry is “inactive”.

In turn, VLAVLVFSGCGGVRGTSNLT gave an amyloid nucleation score of 1.54 ± 0.14.

In the case of RVSAMNEGMRIVCWLVFFRP, the amyloid nucleation score is -0.166 ± 0.9.

In the case of CLLYCTYVMRLTMLKILVVI, the amyloid nucleation score was 1.27 ± 0.63.

In turn, TAIRLVQS showed an amyloid nucleation score of -0.283 ± 0.44.

IIFNEIIHMQFDNIGDV returned an amyloid nucleation score of 3.27 ± 0.17.

Substance VSALAVRARWAINTLARDRR had an amyloid nucleation score of 0.9 ± 0.66.

VMGLT: the amyloid nucleation score was -0.242 ± 1.1.

WIGNRVSSMFDGTGS yielded an amyloid nucleation score of 0.538 ± 0.55.

In turn, SETYTPDRYNVRT yielded an amyloid nucleation score of 0.536 ± 1.4.

In the case of TLSLFLRKGSRTLRCVCPRG, the amyloid nucleation score is -0.112 ± 0.33.

Regarding VSNFIGVFVAVSWRYDDLCF, the amyloid nucleation score turned out to be 0.324 ± 1.2.

In the case of FMFLESRPSNCSTTPCKY, the amyloid nucleation score is -0.29 ± 0.6.

Regarding MRLERTNRGSAPWTLYYNQR, the amyloid nucleation score stood at 1.09 ± 0.17.

In turn, GATVNSVWSVPKQVTWSGMC showed an amyloid nucleation score of -0.138 ± 0.32.

Take IEEPIYDSKHLPKMRSTGYT: the amyloid nucleation score came out at 0.486 ± 0.35.

Take WYVMRLKLVCI: the amyloid nucleation score was found to be 0.156 ± 0.87.

Substance FLSIYDTIVDCWVALVLVRG returned an amyloid nucleation score of -0.723 ± 0.91.

FTCSTYNCWGVHS: the amyloid nucleation score was 1.26 ± 0.37.

The substance VPLVVNRDARH yielded an amyloid nucleation score of 1.26 ± 0.59.

As for FSKFSAVVDDPVCWKRLIFL, the amyloid nucleation score was -0.57 ± 0.53.

In the case of QLETTLFGNAEACLFSSKGR, the amyloid nucleation score came out at 0.522 ± 0.49.

SSLWTFTHRSKVGRYDFMAV gave an amyloid nucleation score of -1.51 ± 1.1.

On to KFDPVKQYLCMYFFTYQIES, for which the amyloid nucleation score came to 2.06 ± 0.15.

For the substance MFRYNCRRAIQIVFMYLWTP, the amyloid nucleation score came to 0.779 ± 0.28.

In turn, SSCVRN gave an amyloid nucleation score of -0.153 ± 0.57.

On to YIAQSFELKA, for which the amyloid nucleation score worked out at 0.23 ± 0.53.

Take CKRRIQMKLLS: the amyloid nucleation score is -0.244 ± 0.37.

Regarding ILNYVRPCS, the amyloid nucleation score came out at 0.416 ± 0.56.

With CVKSYK, the amyloid nucleation score amounted to 0.48 ± 0.66.

As for YISEM, the amyloid nucleation score worked out at 0.544 ± 0.35.

The substance RRLMNMLEGGHMGG had an amyloid nucleation score of 0.083 ± 0.29.

On to LGWNKSTAYELCFTPSSGGY, for which the amyloid nucleation score worked out at 2.11 ± 0.15.

For RNKNFPSKGDLNQGGRNNIK, the amyloid nucleation score amounted to 0.877 ± 0.4.

GNCPNT showed an amyloid nucleation score of 0.367 ± 0.75.

Consider ANSSFLYTSEHFRHVMAWFG, for which the amyloid nucleation score was -0.075 ± 0.68.

ISLDFDNYRVILLKRLVGVM returned an amyloid nucleation score of -0.594 ± 0.33.

STWIHQMRSMASAENFSCYS: the amyloid nucleation score was -1.27 ± 0.63.

Regarding LFCHPSFYINGMWSLGGSGG, the amyloid nucleation score is -0.578 ± 0.66.

SVFWAWCVADHTIIDQKSSL displayed an amyloid nucleation score of 0.391 ± 0.48.

As to NCGSVFFYGPIVGFHRLGLV, the amyloid nucleation score came to 0.967 ± 0.44.

HQEAGLGSMVQTNAHATAKP yielded an amyloid nucleation score of -0.081 ± 1.

MHRYF gave an amyloid nucleation score of -0.286 ± 0.37.

HNVQGRWFFRAHWMSYKHTI came in with an amyloid nucleation score of 0.249 ± 0.62.

As for FKLIHAVNFVYLGYAFYAFF, the amyloid nucleation score was found to be 1.29 ± 0.38.

With VRPMSDNSRVCVKSDNRSTG, the amyloid nucleation score was -1.14 ± 0.93.

Take VRVQTRHLGDGLPHGQDKCY: the amyloid nucleation score was -0.403 ± 0.52.

Substance AYVKLILCLCRNLDWK came in with an amyloid nucleation score of 2.98 ± 0.24.

As for FYWHHWTNLAIIVEYILGEW, the amyloid nucleation score is 0.571 ± 1.2.

In the case of CCFRRVTSRVPGRTMEGNCF, the amyloid nucleation score is -0.264 ± 1.2.

YTWMSIEIY came in with an amyloid nucleation score of 1.71 ± 0.4.

On to TFYGY, for which the amyloid nucleation score is -0.487 ± 1.4.

With ICWRMKVMWPYRTIGSSLTF, the amyloid nucleation score is 1.02 ± 0.45.

Substance NFPVPLRNDLKLAFMQNLNS had an amyloid nucleation score of -0.531 ± 0.3.

With FTIVLELFRNFSRSKVYEDV, the amyloid nucleation score is -0.756 ± 2.4.

As for PSSTNMGRDGWLDCQVHTFE, the amyloid nucleation score is -0.009 ± 0.28.

Substance LSWSILDGFGGMRCCNINAL yielded an amyloid nucleation score of 7.155 ± 0.058.

Substance LGSEAS gave an amyloid nucleation score of 0.093 ± 0.2.

For the substance YCTGSRVVPDGSLVYATCNM, the amyloid nucleation score stood at 0.895 ± 0.65.

The substance LMWDIWVSYGGAKMSDWSKG showed an amyloid nucleation score of -0.225 ± 0.31.

VFLKHAPRGI yielded an amyloid nucleation score of -0.077 ± 1.7.

For the substance WYEVRYMLTQSYRVHMLFLI, the amyloid nucleation score is -0.322 ± 1.7.

TFNGFFCRCPSFKIYFHEVL came in with an amyloid nucleation score of 0.825 ± 0.24.

ANSGTRIRFYICWFKSETTW returned an amyloid nucleation score of 1.87 ± 0.1.

Substance GVEVAFDVLEETRQWPEYYR displayed an amyloid nucleation score of 1.49 ± 0.49.

LNTFTVLMLWMLLQNVAFIL registered an amyloid nucleation score of -1.37 ± 2.1.

As to SSIVKYSCLVVFFQRNHVIP, the amyloid nucleation score result is “inactive”.

In turn, NKSVFVLFVWINSENNVYCE yielded an amyloid nucleation score of 0.443 ± 0.62.

In turn, IWDASKVGSYAELHTLM returned an amyloid nucleation score of 0.744 ± 0.33.

With SASLS, the amyloid nucleation score was 0.396 ± 0.71.

Substance SFLSCRWLVFRLMKLRYICA came in with an amyloid nucleation score of 0.444 ± 1.4.

GRYTYDTMFTGWGASDELHI had an amyloid nucleation score of 1.14 ± 0.97.

The substance GAGRNSWRCCNLLFSEDMIG yielded an amyloid nucleation score of 2.79 ± 0.088.

The substance GSSMLHSFSFGGPALVCCVF registered an amyloid nucleation score of 7.167 ± 0.055.

SWDPNVSFALL displayed an amyloid nucleation score of 2.93 ± 0.25.

KWGLGFFDWKMKYHFRCYKC: the amyloid nucleation score turned out to be 0.033 ± 0.56.

Substance AFVVYMNFFHCLESNIVEWH showed an amyloid nucleation score of 5.61 ± 0.073.

In the case of STSIDVWRSALLRVFGFTIY, the amyloid nucleation score is 0.171 ± 0.37.

Turning to WFYTVARPNVSSSLESRTEP, the amyloid nucleation score is 0.137 ± 0.22.

Take GLSGYSRVFMTADDVGVRVW: the amyloid nucleation score is -1.18 ± 1.5.

PGMKISSFCYTTMNHYNKSF displayed an amyloid nucleation score of -0.375 ± 1.2.

VFLSCHQSLRVFVACYWHWY had an amyloid nucleation score of 0.672 ± 0.33.

The substance LLSIKSKSVFLASYCNILST returned an amyloid nucleation score of 2.71 ± 0.17.

CHCGVL: the amyloid nucleation score stood at 0.702 ± 1.1.

In turn, NDSACIRRSIGSHSFSSCSV came in with an amyloid nucleation score of 0.766 ± 0.84.

With AVRVTLKL, the amyloid nucleation score was 1.31 ± 0.2.

CSEISCPLTKHRCGTLVRVL gave an amyloid nucleation score of -0.761 ± 1.2.

As for GVPYR, the amyloid nucleation score was 0.044 ± 0.68.

On to IHWNWWIRLCGFPFAFYISG, for which the amyloid nucleation score is 0.233 ± 0.32.

Turning to GRCSKYCGFASATCMNGGVS, the amyloid nucleation score turned out to be 0.032 ± 0.32.

The substance ETRTSTETRPCKLWFYDRM had an amyloid nucleation score of -0.718 ± 1.2.

For LNLTCDHSPSYLLIFFLMSI, the amyloid nucleation score is 0.719 ± 0.2.

The substance KMSGTLQ registered an amyloid nucleation score of -0.115 ± 1.4.

The substance LFYFTRLFINRYMNM came in with an amyloid nucleation score of -0.316 ± 0.5.

For the substance PIFMVSLST, the amyloid nucleation score is -0.661 ± 0.66.

The substance RPFSDLSWTLDRVWHRPCWY displayed an amyloid nucleation score of 1.04 ± 0.6.

RYRPSVCRS displayed an amyloid nucleation score of 0.872 ± 0.54.

As to AMIPNVRVYVVVITNISFCV, the amyloid nucleation score stood at 0.736 ± 0.26.

SYDSRNASLVIIISWVMQPL yielded an amyloid nucleation score of 0.992 ± 0.16.

Turning to TWKLATCIWRSLF, the amyloid nucleation score was -0.238 ± 0.21.

The substance LFPSTTMLLFRLNQGGFDEI had an amyloid nucleation score of 0.407 ± 0.58.

Consider SGFRVKQYMFLCFY, for which the amyloid nucleation score is -0.473 ± 0.73.

In turn, NVSGNEMISGAFGIDEIDGS displayed an amyloid nucleation score of 0.189 ± 0.9.

Consider YYMTIFERFSLHFTMGLNLG, for which the amyloid nucleation score turned out to be 0.752 ± 0.56.

With MGEATGSGISADDVYVQGEY, the amyloid nucleation score was 4.26 ± 0.069.

In the case of KVNFSSSLGCVN, the amyloid nucleation score was found to be 0.713 ± 0.85.

PYLSRTRISIVNMCSICGLI returned an amyloid nucleation score of 1.34 ± 0.44.

On to TDWFSSMLEN, for which the amyloid nucleation score came to 0.291 ± 0.3.

In turn, SDYMLNFCYSGLIVRMVFAA yielded an amyloid nucleation score of -0.508 ± 0.98.

As for ALAPPKNSFLLMLALILMLL, the amyloid nucleation score was 0.093 ± 0.53.

FGNSCSADSNRYQIKYTMIK: the amyloid nucleation score stood at 0.155 ± 0.45.

ERFCQGSCCNNFMGVFIRES came in with an amyloid nucleation score of 5.68 ± 0.077.

As to YVFNFLIMLLLGVA, the amyloid nucleation score was -0.665 ± 0.32.

In turn, TSRYVFRT registered an amyloid nucleation score of 0.925 ± 0.58.
